Data from paper PMC6205457.

How the values were obtained:
[1] = target: biotinylated mouse MCL1 (amino acids 152-308) (mouse) (UniProt P97287); experiment: SPR
MCL1 = MCL1 (UniProt P97287); experiment: SPR

Substance | Kd [1] | Kd (MCL1)
PUMA27 I137tBu (peptide) | 7 nM | 
PUMA 27-aa wild-type peptide (pseudo wild-type, M144A) |  | 4 nM
rPUMA (redesigned PUMA peptide: A139tBu, Q140Y, A144Cha, A145G, Y152Bzt) |  | < 0.16 nM
